According to patent US20210230248A1, “Multivalent pharmacophores for high avidity and overexpressed-target specific binding and uses thereof” (priority 2020, published 2021):
Where a chain is given by its changes, count along the chain named. Numbers in names are those of the source. Each block holds one molecule with its values, some of them ahead of it. Where no end group is shown, it is not given here.

Assays:
[1] = biological target: T1, uPAR overexpressing Hela cells (Homo sapiens, UniProt Q03405); assay: Competitive binding assay on uPAR overexpressing Hela cells; conditions: ratio of IC50 values
T1 construct: endogenous in cells; host or cells: Hela cells
Description: This assay is to measure the binding avidity of multivalent PEG-GFD pharmacophores to uPAR overexpressing Hela cells in comparison to uPA. Hela cells express uPAR but not uPA (Rabbani et al., Neoplasia, 2010, 12(10); 778-88), and therefore competition from endogenous uPA can be excluded.
Mouse anti-uPAR (Clone VIM5) is an uPAR blocking antibody (Sillaber et al., J Biol Chem, 1997, 272(12):7824-32). The potency of multivalent PEG-GFD pharmacophores and native uPA to compete against the antibody in binding to the overexpressed uPAR on the surface of Hela cells is measured and compared in this assay.
Hela cells were detached from culture flasks by trypsin/EDTA, resuspended in complete culture medium in a 50 mL conical tube, and incubated for 1 h at 37° C. in 5% CO2 incubator to allow receptor recovery. PE-conjugated anti-uPAR antibody (Clone VIM5; Invitrogen) at the final concentration of 0.5 μg/100 μL (33.33 nM) was mixed with titrated concentrations of 4-arm PEG-GFD and 6-arm PEG-GFD, and recombinant human uPA (Biolegend) in Stain Buffer. The mixture was added into Hela cells (500,000 cells in 100 μL; final density). […] The fluorescent intensity of PE on Hela cells was quantified by flow cytometry and plotted against the titration of 4-arm PEG-GFD, 6-arm PEG-GFD and uPA. The binding avidity of multivalent PEG-GFD pharmacophores relative to native uPA can be calculated.

[2] = test system: H1299, SW480, HT-1080 and PC3 cells; assay: Cell adhesion assay on vitronectin coated plate; format: cell-based, human; conditions: four uPAR overexpressing cell lines; 3 h; various concentrations
Experimental: For adhesion of cancer cells to vitronectin, 96-well plate was coated overnight with vitronectin (Thermo Fisher Scientific) at 5 μg/mL in PBS at 4° C., 50 μL/well. The wells without coating were used as negative controls. The plate was then blocked with 3% MSD Blocking Buffer for 2 h at room temperature. Four uPAR overexpressing human cancer lines were used for the assay: non-small cell lung cancer line H1299, colorectal cancer line SW480, fibrosarcoma line HT-1080 and prostate cancer line PC3. The cells were detached from culture flasks by trypsin/EDTA, resuspended in complete culture medium in a 50 mL conical tube, and incubated for 1 h at 37° C. in 5% CO2 incubator to allow receptor recovery. Cells were then washed with serum-free medium and resuspended in DMEM medium with 0.5% BSA. 50,000 cells in 100 μL were plated into each well with various concentrations of 4-arm and 6-arm PEG-GFD pharmacophores, and uPAR blocking antibody, VIM5. The plates were incubated at 37° C. in 5% CO2 incubator for 3 h, and washed 4 times with PBS with 0.5% BSA. The number of adherent cells in each well was quantified by CellTiter-Glo (Promega).

H1299 and HT-1080 cells [3] = assay: Chemotaxis assay (fibronectin coated transwell); format: cell-based, human; conditions: 10% FBS chemoattractant, 16 h
Experimental: Chemotaxis assay was performed using BD BioCoat 24-well transwell with 8 μm pore size filter which is coated with fibronectin (Corning). For the study, H1299 and HT-1080 cells were detached from culture flasks with trypsin/EDTA, and then the trypsin was deactivated by adding the complete medium. The cells were washed with serum-free medium twice and resuspended at the final density of 50,000 cells in 500 μL DMEM medium supplemented with 0.5% BSA. The cells were treated with multivalent pharmacophores and uPAR blocking antibody for 1 h at 37° C. in 5% CO2 incubator. 650 μL of DMEM with 10% FBS was used as chemoattractant and added into the lower chamber. Serum-free DMEM medium was used as a negative control, and no drug treatment well was considered as 100% migration. After placing the upper chamber into the lower chamber, 500 μL cell suspensions were added to the upper chamber. 4-arm PEG-GFD, 6-arm PEG-GFD and uPAR blocking antibody, VIM5, with various concentrations were added in both upper and lower chambers. The transwell was incubated at 37° C. in 5% CO2 incubator for 16 h. […] The number of cells migrated past the filter was quantify by reading the solution in plate reader after transferring into a white 96-well plates.

H1299 and HT-1080 cells [4] = assay: Matrigel invasion assay; format: cell-based, human; conditions: 10 nM, 24 h
Experimental: The migration of cells through Matrigel indicates the ability of the cells to digest the extracellular matrix during the process of migration. The Matrigel invasion assay is similar to the chemotaxis assay above except that the 8 μm pore size filter is coated with Matrigel. BD BioCoat Matrigel Invasion Chamber (Corning) was used for the assay with H1299 and HT-1080 cells. 4-arm PEG-GFD, 6-arm PEG-GFD and the blocking antibody VIM5 were used at the concentration of 10 nM. After 24 h treatment, the Matrigel along with the cells remaining on the upper surface of filter in the upper chamber was scraped off with a cotton swab. The migrated cells were measured with CellTiter-Glo as described above.

[5] = biological target: T2, CD47 overexpressing Jurkat cells (Homo sapiens, UniProt Q08722); assay: Competitive binding assay on CD47 overexpressing Jurkat cells; conditions: for IC50: against FITC-conjugated anti-CD47 B6H12.2 at ~33.3 nM, 3 h on ice; for increase of avidity compared to SIRPα monomer: ratio of IC50 values
T2 construct: endogenous in cells; host or cells: Jurkat cells
Experimental: This assay is to measure the binding avidity of multivalent PEG-SIRPα IgV pharmacophores to CD47 overexpressing Jurkat cells by competing against FITC-conjugated CD47 blocking antibody, and to compare the avidity to the affinity of wide-type SIRPα ectodomain.
FITC-conjugated mouse anti-human CD47 monoclonal antibody (Clone B6H12.2, Invitrogen) at the final concentration of 0.5 μg/100 μL (˜33.3 nM) was mixed with titrated concentration (from 0.04 nM to 10.5 μM in Stain Buffer) of SIRPα monomer (Acro Biosystems), 4-arm PEG-2K SIRPα IgV and 6-arm PEG-3.4K SIRPα IgV, both wide-type and Q67R mutant forms. The mixture was added into Jurkat cells (500,000 cells in 100 μL, final density). After incubation on ice for 3 h with occasional mixing, the cells were washed to remove the unbound reagents. The fluorescence intensity of FITC was quantified by flow cytometry. The increase of the binding activity for multivalent PEG-SIRPα IgV pharmacophores compared to SIRPα monomer can be calculated.

[6] = biological target: T3, human red blood cells (RBCs) (Homo sapiens, UniProt Q08722); assay: Competitive binding assay on human red blood cells; conditions: either wide-type or mutant SIRPα IgV; antibody at ~33.3 nM; titration up to 200 nM
T3 construct: from tissue; host or cells: red blood cells from human whole blood of healthy donors
Experimental: To assess the risks from binding of multivalent PEG-SIRPα IgV pharmacophores to normal RBCs and subsequent anemia as has been reported for many CD47 targeting agents, a similar competitive binding assay as (4) above is conducted using RBCs as the binding targets.
Human whole blood from healthy donors was drawn into sodium heparin tube. The blood was washed 3 times with PBS and diluted in Stain Buffer (0.5×10^6 RBCs in 100 μL, final density). The competitive binding was performed by incubating RBCs with FITC-conjugated CD47 blocking antibody (Clone B6H12.2, Invitrogen) at the final concentration of 0.5 μg/100 μL (˜33.3 nM) and titrated concentration of 4-arm, or 6-arm PEG-SIRPα IgV as described above, or an unconjugated CD47 blocking antibody (B6H12.2, Invitrogen). A mouse isotype IgG1 was used as a negative control. RBCs were incubated with the reagents on ice for 3 h, mixing occasionally. After washing, the fluorescence intensity of FITC on RBCs was quantified by flow cytometry.

[7] = biological target: T4, uPAR on cells (uPAR overexpressing Hela, HT-1080, H1299, SW480 and PC3 cells) (human, UniProt Q03405 23-305); assay: competitive flow cytometry on uPAR overexpressing Hela cells against PE-VIM5 at ~33.33 nM
T4 construct: whole, on cells; also called CD87; overexpressed uPAR
Experimental: Hela cells were detached from culture flasks by trypsin/EDTA, resuspended in complete culture medium in a 50 mL conical tube, and incubated for 1 h at 37° C. in 5% CO₂ incubator to allow receptor recovery. […] The mixture was added into Hela cells (500,000 cells in 100 μL; final density). After incubation on ice for 3 h with occasional mixing, the cells were washed to remove the unbound test reagents.

T2 sequence (Q08722 19-323): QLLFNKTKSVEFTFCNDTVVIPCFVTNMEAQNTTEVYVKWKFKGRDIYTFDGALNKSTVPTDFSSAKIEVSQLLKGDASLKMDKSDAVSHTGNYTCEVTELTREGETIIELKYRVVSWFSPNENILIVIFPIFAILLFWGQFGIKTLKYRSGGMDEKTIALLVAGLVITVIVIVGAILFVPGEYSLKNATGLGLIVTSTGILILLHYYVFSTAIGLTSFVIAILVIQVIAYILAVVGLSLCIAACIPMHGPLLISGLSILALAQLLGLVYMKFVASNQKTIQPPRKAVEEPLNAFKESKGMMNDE
T3 sequence (Q08722 19-323): as above
T4 sequence (Q03405 23-305): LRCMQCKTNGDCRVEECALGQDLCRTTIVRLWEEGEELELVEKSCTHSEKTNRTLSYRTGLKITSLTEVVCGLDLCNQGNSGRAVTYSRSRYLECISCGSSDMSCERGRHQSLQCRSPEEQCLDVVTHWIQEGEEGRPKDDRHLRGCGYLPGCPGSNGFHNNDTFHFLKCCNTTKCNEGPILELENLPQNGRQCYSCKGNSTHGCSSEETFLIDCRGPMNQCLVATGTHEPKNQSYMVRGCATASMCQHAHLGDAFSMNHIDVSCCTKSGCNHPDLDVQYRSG
T1 sequence (Q03405 23-335): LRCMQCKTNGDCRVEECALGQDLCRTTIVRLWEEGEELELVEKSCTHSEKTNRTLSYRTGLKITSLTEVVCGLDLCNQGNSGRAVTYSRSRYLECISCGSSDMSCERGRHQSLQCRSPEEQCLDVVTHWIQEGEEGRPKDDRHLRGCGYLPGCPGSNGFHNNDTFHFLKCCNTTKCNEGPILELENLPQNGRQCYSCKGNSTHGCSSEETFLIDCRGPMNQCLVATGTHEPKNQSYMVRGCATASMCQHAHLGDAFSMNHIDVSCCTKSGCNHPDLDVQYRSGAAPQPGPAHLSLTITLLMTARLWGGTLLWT

fold increase in binding activity relative to native uPA [1]: ~31 fold
Molecule: 4-arm PEG-GFD: growth factor-like domain of uPA (first 43 amino acids) conjugated to 4-arm PEG-2K (VPSNCDCLNGGTCVSNKYFSNIHWCNCPKKFGGQHCEIDKSKT; not fully specified (C-terminus); ends and bridges not checked; also: conjugated to 4-arm PEG-2K (site not given here))
inhibition of adhesion to vitronectin [2]: inhibited the adhesion of all four cell lines to vitronectin dose-dependently
migration of cells to the lower chamber (chemotaxis) (H1299 and HT-1080 cells [3]): significantly reduced migration
Matrigel invasion (H1299 and HT-1080 cells [4]): significantly inhibited

IC50 [5]: 8.12 nM
increase of avidity compared to SIRPα monomer [5]: about 995 folds
B1: wide-type 4-arm PEG-SIRPα IgV: 4-arm PEG-2K conjugated with wide-type SIRPα IgV-like domain (conjugate)
chain: EEELQVIQPDKSVLVAAGETATLRCTATSLIPVGPIQWFRGAGPGRELIYNQKEGHFPRVTTVSDLTKRNNMDFSIRIGNITPADAGTYYCVKFRKGSPDDVEFKSGAGTELSVRA

IC50 [5]: 10.9 nM
B2: mutant 4-arm PEG-SIRPα IgV: 4-arm PEG-2K conjugated with Q67R mutant SIRPα IgV-like domain (conjugate)
chain: B1 chain with Q37R

competitive binding to RBCs against FITC-conjugated CD47 blocking antibody [6]: did not compete
B3: 6-arm PEG-SIRPα IgV: 6 units of SIRPα IgV-like domain conjugated to 6-arm PEG-3.4K; wide-type or Q67R mutant not specified (conjugate)
chain: B1 chain

competitive binding to RBCs against FITC-conjugated CD47 blocking antibody [6]: did not compete
B4: 4-arm PEG-SIRPα IgV: 4 units of SIRPα IgV-like domain conjugated to 4-arm PEG-2K; wide-type or Q67R mutant not specified (conjugate)
chain: B1 chain

IC50 [5]: 1.06 nM
B5: mutant 6-arm PEG-SIRPα IgV: 6-arm PEG-3.4K conjugated with Q67R mutant SIRPα IgV-like domain (conjugate)
chain: B1 chain with Q37R

IC50 [5]: 0.723 nM
increase of avidity compared to SIRPα monomer [5]: ~11,174 folds
B6: wide-type 6-arm PEG-SIRPα IgV: 6-arm PEG-3.4K conjugated with wide-type SIRPα IgV-like domain (conjugate)
chain: B1 chain

IC50 [7]: 1.14 nM
B7: 4-arm PEG-GFD (designed binder)
chain: VPSNCDCLNGGTCVSNKYFSNIHWCNCPKKFGGQHCEIDKSKT
modifications: not fully specified (C-terminus); ends and bridges not checked; also: four GFD units on 4-arm PEG-2K
notes: Four GFD units on 4-arm PEG-2K; Expressed in E. coli; also called tetravalent PEG-GFD pharmacophore; 4-arm PEG growth factor-like domain of uPA

IC50 [7]: 0.412 nM
B8: 6-arm PEG-GFD (designed binder)
chain: B7 chain
modifications: not fully specified (C-terminus); ends and bridges not checked; also: six GFD units on 6-arm PEG-3.4K
notes: Six GFD units on 6-arm PEG-3.4K; also called hexavalent PEG-GFD pharmacophore; 6-arm PEG growth factor-like domain of uPA
